The values below come from patent US20210301029A1 (LYVGEN BIOPHARMA, published 2021).

The chains are these.
T1: human FcγRIIB (human, UniProt P31994 43-310)
T1 construct: whole, on cells; also called CD32b; FcγR2B
T1 sequence (looked up): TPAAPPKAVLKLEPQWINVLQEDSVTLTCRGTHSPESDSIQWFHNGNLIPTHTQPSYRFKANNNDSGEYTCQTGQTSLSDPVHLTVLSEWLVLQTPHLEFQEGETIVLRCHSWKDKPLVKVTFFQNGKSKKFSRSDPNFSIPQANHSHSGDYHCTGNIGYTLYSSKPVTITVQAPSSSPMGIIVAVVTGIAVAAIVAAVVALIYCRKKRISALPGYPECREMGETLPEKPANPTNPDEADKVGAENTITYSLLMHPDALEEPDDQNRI

B1: 383-huIgG2m19 (antibody)
heavy: not shown
light: DIQMTQSPSSVSASVGDRVTITCRASQGIYSWLAWYQQKPGKAPNLLIYTASTLQSGVPSRFSGSGSGTDFTLTISSLQPEDFATYYCQQANIFPLTFGGGTKVEIKRTVAAPSVFIFPPSDEQLKSGTASVVCLLNNFYPREAKVQWKVDNALQSGNSQESVTEQDSKDSTYSLSSTLTLSKADYEKHKVYACEVTHQGLSSPVTKSFNRGEC
B2: 383-huIgG2m44 (antibody)
heavy: not shown
light: B1 light
B3: 383-huIgG2m20 (antibody)
heavy: not shown
light: B1 light
notes: also called 383-G2m20; 383-IghuG2m20
B4: 383-huIgG4m20 (antibody)
heavy: not shown
light: B1 light
B5: 383-huIgG4SP (antibody)
heavy chain: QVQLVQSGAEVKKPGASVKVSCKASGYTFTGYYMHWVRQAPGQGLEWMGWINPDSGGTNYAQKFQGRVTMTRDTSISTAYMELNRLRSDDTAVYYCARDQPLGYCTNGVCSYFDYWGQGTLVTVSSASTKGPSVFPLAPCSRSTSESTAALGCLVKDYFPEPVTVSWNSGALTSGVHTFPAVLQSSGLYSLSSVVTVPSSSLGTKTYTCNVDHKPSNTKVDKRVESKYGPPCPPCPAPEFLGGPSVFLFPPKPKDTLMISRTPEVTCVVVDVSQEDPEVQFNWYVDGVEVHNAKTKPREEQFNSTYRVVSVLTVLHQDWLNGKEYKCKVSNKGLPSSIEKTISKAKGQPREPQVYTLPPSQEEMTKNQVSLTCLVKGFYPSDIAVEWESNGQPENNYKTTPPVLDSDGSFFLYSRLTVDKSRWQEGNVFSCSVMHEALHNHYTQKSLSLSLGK
light chain: B1 light
notes: anti-CD40 antibody 383 on a human IgG4 S228P constant region
B6: 383-huIgG2mAA (antibody)
heavy: not shown
light: B1 light
B7: 383-huIgG4m42 (antibody)
heavy: not shown
light: B1 light
B8: 383-huIgG4m41 (antibody)
heavy: not shown
light: B1 light
B9: 383-huIgG2m40 (antibody)
heavy: not shown
light: B1 light
notes: also called 383-G2m40; 383-IghuG2m40
B10: 383-huIgG2m1 (antibody)
heavy: not shown
light: B1 light
B11: 383-huIgG1 N297A (antibody)
heavy: not shown
light: B1 light
notes: the entry already carries the change
B12: 383-huIgG1mAA (antibody)
heavy: not shown
light: B1 light
B13: 383-huIgG1m40 (antibody)
heavy: not shown
light: B1 light
B14: 383-huIgG2G4 (antibody)
heavy: not shown
light: B1 light
B15: 383-huIgG1m48 (antibody)
heavy: not shown
light: B1 light

T2 sequence (P08637 17-254): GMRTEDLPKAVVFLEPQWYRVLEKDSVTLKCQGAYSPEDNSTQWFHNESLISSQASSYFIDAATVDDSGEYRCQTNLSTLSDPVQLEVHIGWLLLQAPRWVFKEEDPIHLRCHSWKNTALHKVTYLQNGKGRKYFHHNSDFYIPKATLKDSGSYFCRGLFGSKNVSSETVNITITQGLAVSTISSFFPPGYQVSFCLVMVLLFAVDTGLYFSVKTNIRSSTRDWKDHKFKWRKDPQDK
T3 sequence (P12314 16-374): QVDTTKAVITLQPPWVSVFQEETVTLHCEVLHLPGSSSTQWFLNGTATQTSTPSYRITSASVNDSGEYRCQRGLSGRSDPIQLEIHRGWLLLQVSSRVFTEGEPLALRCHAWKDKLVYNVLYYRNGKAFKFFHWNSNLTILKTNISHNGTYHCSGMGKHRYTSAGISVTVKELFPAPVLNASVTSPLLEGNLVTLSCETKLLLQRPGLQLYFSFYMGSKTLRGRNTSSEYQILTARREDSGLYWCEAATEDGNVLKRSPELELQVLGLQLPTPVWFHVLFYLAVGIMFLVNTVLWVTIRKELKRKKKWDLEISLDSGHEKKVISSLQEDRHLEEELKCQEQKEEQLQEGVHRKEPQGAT

One test has as its target T2, human FcγRIII (human, UniProt P08637 17-254).
T2 construct: whole, on cells; also called FcγRIIIA; CD16a
The experiment in a line: FACS on CHO cells expressing human FcγRIIIA (MFI). The protocol: (§1) For FACS analysis of the IgG mutants' binding to different FcγRs, FcγR overexpressing CHO cells were harvested using trypsin-EDTA and were suspended in cold staining buffer (3% BSA in PBS). Test IgG mutants, which were diluted in staining buffer, were added into the cells. The mixture was incubated at 4° C. for 2 hours, and then washed twice with cold staining buffer and re-suspended in PE-labeled anti-human IgG followed by incubation at 4° C. for 2 hours. The mixture was washed twice with staining buffer and re-suspended in 2% PFA in PBS for FACS.
Regarding B1, the binding result was “no binding (tested: 30 µg/mL)”.
Still for that read-out and setting: for B2 the value was “no binding (tested: 30 µg/mL)”.
B3: the binding result is listed as “no binding (tested: 30 µg/mL)”.
On the same count and under the same terms, for B4 the value was “no binding (tested: 30 µg/mL)”; for B5, “no binding (tested: 30 µg/mL)”; for B6, “no binding (tested: 30 µg/mL)”.
Same read-out and setting: for B7 the value was “no binding (tested: 30 µg/mL)”; for B8, “no binding (tested: 30 µg/mL)”; for B9, “no binding (tested: 30 µg/mL)”.
On the same count and under the same terms, for B10 the value was “no binding (tested: 30 µg/mL)”.
As for B11, the binding result is “no binding (tested: 30 µg/mL)”.
Still for that read-out and setting: for B12 the value was “no binding (tested: 30 µg/mL)”.
Still for that read-out and setting: for B13 the value was “no binding (tested: 30 µg/mL)”; for B14, “no binding (tested: 30 µg/mL)”.
Consider B15, for which the binding result was “no binding (tested: 30 µg/mL)”.

A further test addresses T1, human FcγRIIB. Kind of test: FACS on CHO cells expressing human FcγRIIB (MFI). The protocol:
as §1
Take B1: the binding result is “binds”.
Still for that read-out and setting: for B2 the value was “binds”.
Still for that read-out and setting: for B3 the value was “binds”.
Still for that read-out and setting: as for B4, the entry is “no binding (tested: 30 µg/mL)”.
With B5, the binding result is given as “binds”.
The same measure, in the same setting: for B6 the value was “binds”.
On to B7, for which the binding result is given as “no binding (tested: 30 µg/mL)”.
The same measure, in the same setting: for B8 the value was “no binding (tested: 30 µg/mL)”; for B9, “no binding (tested: 30 µg/mL)”.
On the same count and under the same terms, for B10 the value was “no binding (tested: 30 µg/mL)”; for B11, “binds”; for B12, “no binding (tested: 30 µg/mL)”.
With B13, the binding result is “no binding (tested: 30 µg/mL)”.
In the case of B14, the binding result is on record as “binds”.
The same measure, in the same setting: as for B15, the entry is “binds”.

The next test has as its target T3, human FcγRI (human, UniProt P12314 16-374).
T3 construct: whole, on cells; also called CD64
The experiment in a line: FACS on CHO cells expressing human FcγRI (MFI). The protocol: as §1
For B1, the binding result is recorded as “no binding (tested: 30 µg/mL)”.
B2: the binding result is “no binding (tested: 30 µg/mL)”.
As for B3, the binding result is “no binding (tested: 30 µg/mL)”.
On the same count and under the same terms, for B4 the value was “no binding (tested: 30 µg/mL)”.
On to B5, for which the binding result was “binds”.
Same read-out and setting: as for B6, the entry is “no binding (tested: 30 µg/mL)”.
On the same count and under the same terms, for B7 the value was “no binding (tested: 30 µg/mL)”; for B8, “no binding (tested: 30 µg/mL)”; for B9, “no binding (tested: 30 µg/mL)”.
Still for that read-out and setting: as for B10, the entry is “no binding (tested: 30 µg/mL)”; as for B11, “binds”.
For B12, the binding result is “no binding (tested: 30 µg/mL)”.
As to B13, the binding result is recorded as “no binding (tested: 30 µg/mL)”.
The same measure, in the same setting: as for B14, the entry is “no binding (tested: 30 µg/mL)”; as for B15, “binds”.
